The target in test [1] is T1, Human CLEC12A-His (human, UniProt Q5QGZ9 65-265).
T1 construct: Recombinant soluble protein made in house (Dragonfly Tx); The hCLEC12A spot of the HuProt array is written under this molecule as well; also called hCLEC12A-His; hCLEC12A; not shown: His tag
T1 sequence: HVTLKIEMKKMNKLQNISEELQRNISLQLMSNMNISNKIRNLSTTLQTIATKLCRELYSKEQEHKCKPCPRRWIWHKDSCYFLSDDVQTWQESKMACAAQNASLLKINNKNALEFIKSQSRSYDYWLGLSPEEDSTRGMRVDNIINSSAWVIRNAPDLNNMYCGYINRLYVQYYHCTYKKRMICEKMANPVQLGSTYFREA
The test is described as follows: SPR Biacore 8K 37 C; TriNKET captured on anti-hFc chip, hCLEC12A-His as analyte; 1:1 fit; control sample, n=2. In general terms: In SPR one partner is held on a chip, and binding of the other changes the refractive index at the surface.

Test [2] has as its target T2, mFc-hNKG2D (human, UniProt P26718 73-216).
T2 construct: extracellular domain; Made in house (Dragonfly Tx); the order of tag and ECD follows the name mFc-hNKG2D; also called mFc-tagged human NKG2D; not shown: mouse Fc tag
T2 sequence (looked up): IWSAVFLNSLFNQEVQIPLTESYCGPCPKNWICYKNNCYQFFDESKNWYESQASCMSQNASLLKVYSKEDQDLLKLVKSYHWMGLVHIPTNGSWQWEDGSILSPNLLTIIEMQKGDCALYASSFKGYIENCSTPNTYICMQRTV
Briefly: SPR Biacore 8K 37 C; mFc-hNKG2D captured on anti-mFc chip, TriNKET as analyte; 1:1 kinetic fit; pH 5.0 control.

Test [3] addresses T2, mFc-hNKG2D. Briefly: SPR Biacore 8K 37 C; mFc-hNKG2D captured on anti-mFc chip, TriNKET as analyte; steady state affinity fit; average of 4.
Description: Association was monitored for 60 seconds, and dissociation was monitored for 60 seconds. Surfaces were regenerated between cycles with three pulses of 10 mM glycine-HCl (pH 1.7) injected for 20 seconds at 100 μL/min.
Two different fits were utilized to obtain the equilibrium affinity data: steady state affinity fit and kinetic fit.
The target in test [4] is T1, Human CLEC12A-His. Briefly: SPR Biacore 8K 37 C; TriNKET captured on anti-hFc chip, hCLEC12A-His as analyte; 1:1 fit; after 4 wks 40 C in CST pH 7.0, n=2.
Description: Briefly, human Fc specific antibodies were covalently immobilized at a density ˜8000-10000 resonance units (RU) on carboxy methyl dextran matrix of a CM5 biosensor chip via amine-coupling chemistry to create an anti-hFc IgG chip. […] Association was monitored for 300 seconds and dissociation was monitored for 600 seconds. Surfaces were regenerated between cycles with three pulses of 10 mM glycine-HCl, pH 1.7 injected for 20 seconds at 100 μL/min. HBS-EP+ (1×) with 0.1 mg/mL BSA buffer was used throughout the experiment. Data were analyzed using Biacore 8K Insight evaluation software (GE Healthcare).

This passage reports Kd, koff and kon results from US20220119534A1 (DRAGONFLY THERAPEUTICS, published 2022).

B1: F3'-1602 TriNKET (bispecific antibody, human IgG1, kappa)
chain: QLQLQESGPGLVKPSETLSLTCTVSGFSLTNYGLHWIRQPPGKCLEWIGVIWSGGKTDYNPSLKSRVTISKDTSKNQFSLKLSSVQAADTAVYYCAKYDYDDSLDYWGQGTLVTVSSGGGGSGGGGSGGGGSGGGGSDIQMTQSPSSLSASVGDRVTITCHASQNINFWLSWYQQKPGKAPKLLIYEASNLHTGVPSRFSGSGSGTRFTLTISSLQPEDIATYYCQQSHSYPLTFGCGTKLEIKGSDKTHTCPPCPAPELLGGPSVFLFPPKPKDTLMISRTPEVTCVVVDVSHEDPEVKFNWYVDGVEVHNAKTKPREEQYNSTYRVVSVLTVLHQDWLNGKEYKCKVSNKALPAPIEKTISKAKGQPREPRVYTLPPCRDELTKNQVSLTCLVKGFYPSDIAVEWESNGQPENNYKTTPPVLVSDGSFTLYSKLTVDKSRWQQGNVFSCSVMHEALHNHYTQKSLSLSPG
heavy: EVQLVESGGGLVKPGGSLRLSCAASGFTFSSYSMNWVRQAPGKGLEWVSSISSSSSYIYYADSVKGRFTISRDNAKNSLYLQMNSLRAEDTAVYYCARGAPIGAAAGWFDPWGQGTLVTVSSASTKGPSVFPLAPSSKSTSGGTAALGCLVKDYFPEPVTVSWNSGALTSGVHTFPAVLQSSGLYSLSSVVTVPSSSLGTQTYICNVNHKPSNTKVDKKVEPKSCDKTHTCPPCPAPELLGGPSVFLFPPKPKDTLMISRTPEVTCVVVDVSHEDPEVKFNWYVDGVEVHNAKTKPREEQYNSTYRVVSVLTVLHQDWLNGKEYKCKVSNKALPAPIEKTISKAKGQPREPQVCTLPPSRDELTENQVSLTCLVKGFYPSDIAVEWESNGQPENNYKTTPPVLDSDGSFFLYSWLTVDKSRWQQGNVFSCSVMHEALHNHYTQKSLSLSPG
light: DIQMTQSPSSVSASVGDRVTITCRASQGISSWLAWYQQKPGKAPKLLIYAASSLQSGVPSRFSGSGSGTDFTLTISSLQPEDFATYYCQQGVSFPRTFGGGTKVEIKRTVAAPSVFIFPPSDEQLKSGTASVVCLLNNFYPREAKVQWKVDNALQSGNSQESVTEQDSKDSTYSLSSTLTLSKADYEKHKVYACEVTHQGLSSPVTKSFNRGEC
notes: Trispecific F3' format: CLEC12A scFv-Fc paired with NKG2D Fab-Fc; Stressed and control samples of the stability studies are the same molecule; also called AB0237
As for B1, the dissociation constant (Kd) with Human CLEC12A-His [1] is 1.11 nM; with mFc-hNKG2D [2] it was 678 nM; in the test with mFc-hNKG2D [3], 727 nM; in the test with Human CLEC12A-His [4] it was 0.86 nM. The koff with Human CLEC12A-His [1] worked out at 0.000873 s⁻¹; in the test with mFc-hNKG2D [2], 0.128 s⁻¹; with Human CLEC12A-His [4], 0.000674 s⁻¹. Also, the kon with Human CLEC12A-His [1] came to 791000 M⁻¹ s⁻¹; in the test with mFc-hNKG2D [2], 189000 M⁻¹ s⁻¹; with Human CLEC12A-His [4] it was 784000 M⁻¹ s⁻¹.

Usually Kd stands for the equilibrium constant for the complex coming apart. Higher therefore signals weaker binding. As usually defined, the koff is the rate constant with which the complex falls apart. A high value points to a short-lived complex. What is called kon is the rate constant with which the complex forms. High values mean fast association, low ones slow association.
